Experiments:
[1] = system: 40S ribosomal subunit, Rps5-R148E;eIF1;eIF1A;eIF2 WT; assay: EMSA (native gel); details: methionylated; T7 transcript; 30 mM Hepes-KOH pH 7.4, 100 mM KOAc, 3 mM Mg(OAc)2, 2 mM DTT, 26°C; 1 nM [35S]-Met-tRNAi, 200-250 nM eIF2, 1 uM eIF1 and eIF1A, 100 uM GDPNP (Kd assays), mRNA …
[2] = system: 40S ribosomal subunit, WT Rps5;eIF1;eIF1A;eIF2 WT; assay: EMSA (native gel); details: methionylated; T7 transcript; 30 mM Hepes-KOH pH 7.4, 100 mM KOAc, 3 mM Mg(OAc)2, 2 mM DTT, 26°C; 1 nM [35S]-Met-tRNAi, 200-250 nM eIF2, 1 uM eIF1 and eIF1A, 100 uM GDPNP (Kd assays), mRNA …
[3] = system: 40S ribosomal subunit, Rps5-E144R;eIF1;eIF1A;eIF2 WT; assay: EMSA (native gel); details: methionylated; T7 transcript; 30 mM Hepes-KOH pH 7.4, 100 mM KOAc, 3 mM Mg(OAc)2, 2 mM DTT, 26°C; 1 nM [35S]-Met-tRNAi, 200-250 nM eIF2, 1 uM eIF1 and eIF1A, 100 uM GDPNP (Kd assays), mRNA …
[4] = system: 40S ribosomal subunit, Rps5-E144R;eIF1;eIF1A;eIF2 WT; assay: EMSA kinetics (Kd = koff/kon); details: methionylated; T7 transcript; 30 mM Hepes-KOH pH 7.4, 100 mM KOAc, 3 mM Mg(OAc)2, 2 mM DTT, 26°C; 1 nM [35S]-Met-tRNAi, 200-250 nM eIF2, 1 uM eIF1 and eIF1A, 100 uM GDPNP (Kd assays), mRNA …
[5] = system: 40S ribosomal subunit, WT Rps5;eIF1;eIF1A;eIF2 with eIF2beta-S264Y (SUI3-2); assay: EMSA kinetics (dissociation); details: methionylated; T7 transcript; 30 mM Hepes-KOH pH 7.4, 100 mM KOAc, 3 mM Mg(OAc)2, 2 mM DTT, 26°C; 1 nM [35S]-Met-tRNAi, 200-250 nM eIF2, 1 uM eIF1 and eIF1A, 100 uM GDPNP (Kd assays), mRNA …
[6] = system: 40S ribosomal subunit, Rps5-R148E;eIF1;eIF1A;eIF2 with eIF2beta-S264Y (SUI3-2); assay: EMSA kinetics (dissociation); details: methionylated; T7 transcript; 30 mM Hepes-KOH pH 7.4, 100 mM KOAc, 3 mM Mg(OAc)2, 2 mM DTT, 26°C; 1 nM [35S]-Met-tRNAi, 200-250 nM eIF2, 1 uM eIF1 and eIF1A, 100 uM GDPNP (Kd assays), mRNA …
[7] = system: 40S ribosomal subunit, Rps5-R148E;eIF1;eIF1A;eIF2 WT; assay: EMSA kinetics (dissociation); details: methionylated; T7 transcript; 30 mM Hepes-KOH pH 7.4, 100 mM KOAc, 3 mM Mg(OAc)2, 2 mM DTT, 26°C; 1 nM [35S]-Met-tRNAi, 200-250 nM eIF2, 1 uM eIF1 and eIF1A, 100 uM GDPNP (Kd assays), mRNA …
[8] = biological target: 40S·eIF1·eIF1A complex assembled with Rps5-R148E mutant 40S subunits (yeast (S. cerevisiae), UniProt P26783 1-225; P32911 1-108; P38912 1-153, R148E)

For initiator Met-tRNAi, the Kd [1] was under 1 nM, the Kd [2] was under 1 nM and the Kd [3] was under 1 nM. For the same molecule, the binding signal (fold lower affinity than WT 40S) [4] was 40, the binding signal (fold lower koff than with WT eIF2) [5] was 3 and the binding signal (fold higher koff than WT 40S) [6] was 4. It also gave a binding signal (fold higher koff than WT 40S) [7] of 2.

B1: eIF2∙GTP∙Met-tRNAi ternary complex (TC), wild-type eIF2 (complex)
chain 1: MSTSHCRFYENKYPEIDDIVMVNVQQIAEMGAYVKLLEYDNIEGMILLSELSRRRIRSIQKLIRVGKNDVAVVLRVDKEKGYIDLSKRRVSSEDIIKCEEKYQKSKTVHSILRYCAEKFQIPLEELYKTIAWPLSRKFGHAYEAFKLSIIDETVWEGIEPPSKDVLDELKNYISKRLTPQAVKIRADVEVSCFSYEGIDAIKDALKSAEDMSTEQMQVKVKLVAAPLYVLTTQALDKQKGIEQLESAIEKITEVITKYGGVCNITMPPKAVTATEDAELQALLESKELDNRSDSEDDEDESDDE
chain 2: MSSDLAAELGFDPALKKKKKTKKVIPDDFDAAVNGKENGSGDDLFAGLKKKKKKSKSVSADAEAEKEPTDDIAEALGELSLKKKKKKTKDSSVDAFEKELAKAGLDNVDAESKEGTPSANSSIQQEVGLPYSELLSRFFNILRTNNPELAGDRSGPKFRIPPPVCLRDGKKTIFSNIQDIAEKLHRSPEHLIQYLFAELGTSGSVDGQKRLVIKGKFQSKQMENVLRRYILEYVTCKTCKSINTELKREQSNRLFFMVCKSCGSTRSVSSIKTGFQATVGKRRRM
chain 3: MSDLQDQEPSIIINGNLEPVGEPDIVEETEVVAQETQETQDADKPKKKVAFTGLEEDGETEEEKRKREFEEGGGLPEQPLNPDFSKLNPLSAEIINRQATINIGTIGHVAHGKSTVVRAISGVQTVRFKDELERNITIKLGYANAKIYKCQEPTCPEPDCYRSFKSDKEISPKCQRPGCPGRYKLVRHVSFVDCPGHDILMSTMLSGAAVMDAALLLIAGNESCPQPQTSEHLAAIEIMKLKHVIILQNKVDLMREESALEHQKSILKFIRGTIADGAPIVPISAQLKYNIDAVNEFIVKTIPVPPRDFMISPRLIVIRSFDVNKPGAEIEDLKGGVAGGSILNGVFKLGDEIEIRPGIVTKDDKGKIQCKPIFSNIVSLFAEQNDLKFAVPGGLIGVGTKVDPTLCRADRLVGQVVGAKGHLPNIYTDIEINYFLLRRLLGVKTDGQKQAKVRKLEPNEVLMVNIGSTATGARVVAVKADMARLQLTSPACTEINEKIALSRRIEKHWRLIGWATIKKGTTLEPIA
With B1 the Kd [8] was 101 nM.

— publication PMC4513230 (2015)
